Source: US12534510B2, “Peptide-receptive MHC-I complex compositions and methods” (priority 2020, dated 2026)
Values belong to the substance of their own block, whether it stands above or below them.

What was measured:
[1] = target: HLA-A*24:02/TAPBPR complex (Homo sapiens, UniProt P04439, D101N/D140Y/D185E/E176V/E190D/F33S/G103R/G107R/I119L/I121M/I306V/K335N/L105A/L180Q/L300P/N151K/N90K/Q86E/Q94H/R106L/R138H/R89G/T104I/T345S/V100E/W191G/Y123F); experiment: Native gel dissociation of MHC-I/TAPBPR complex by peptide; type: biochemical; conditions: HLA-A*24:02 refolded with gNEF, 10-fold molar excess peptide
H-2D^d = H-2D^d (Mus musculus, UniProt P01900); conditions: cited from earlier work
H-2D^d/TAPBPR complex = H-2D^d/TAPBPR complex (Mus musculus, UniProt P01900)
[2] = nanoDSF melting temperatures; type: physicochemical
Description: In a volume of 20 μl, 1 μM peptide deficient HLA-A*02:01/TAPBPR was incubated with 20 μM of various peptides (FIG. 22) in a buffer of 20 mM sodium phosphate pH 7.2, 100 mM NaCl, 0.02% TWEEN-20 for at least one hour. 10 ul of each sample was loaded on the Prometheus NT.48 instrument (NanoTemper™) using the high sensitivity capillaries. NanoDSF™ measurements are performed using a temperature ramp rate of 1° C./min from 25° C. to 95° C. and an LED intensity of 20%. Data was analyzed using the PR Control software (NanoTemper™). Melting temperatures (Tm values) correspond to the inflection points of the first derivative of the 330/350 nm fluorescence ratio. Experiments were performed in duplicates and the shaded areas (FIG. 17b) are representative of the error.

H-2L^d/TAPBPR complex = target: T1, H-2L^d/TAPBPR complex (Mus musculus, UniProt P01897); experiment: SEC TAPBPR binding assay with LC-MS peptide occupancy; parameters: species or system murine; conditions: 10 mM Gly-Phe dipeptide (GF)
T1 construct: Plasmid DNA encoding the luminal domain of class I MHC (MHC-I) heavy chains H-2D^d, HLA-A*02:01, H-2L^d; made in house; Drosophila S2 for TAPBPR
Description: Complexes were resolved on an Superdex 200 10/300 increase column (GE healthcare) at a flow rate of 0.5 mL/min in 100 mM NaCl and 20 mM sodium phosphate pH 7.2 at room temperature. MHC-I/TAPBPR complexes eluted at 26.5 min.

[3] = tested on: B4.2.3 TCR transgenic T cell line; experiment: Tetramer staining by flow cytometry; type: cell-based, murine; parameters: dose or concentration left out as unconfirmed; conditions: stoichiometric (1:1) or catalytic (1:100) TAPBPR:MHC ratio
[4] = target: HLA-A*68:02/TAPBPR complex (Homo sapiens, UniProt P04439, A269V/D140Y/D185E/E176V/E277Q/E87N/F33Y/G231S/I121R/I166T/I218V/L180W/L300P/L318F/N151K/P208A/P217A/Q86R/R138H/R169H/S129P/T345S/V36M); experiment: Native gel dissociation of MHC-I/TAPBPR complex by peptide; type: biochemical; conditions: HLA-A*68:02 refolded with gTAX, 10-fold molar excess peptide

Substance: RYPLTFGWCF (Sequence is synthesized) [Nef134-10]
- effect of peptide on MHC-I/TAPBPR complex [1]: complex dissociation

Substance: GPGRAFVTI [gP18-I10]
- increase in the peptide off-rate relative to full-length P18-I10 peptide (H-2D^d): 100 fold
- fate of bound peptide in the presence of TAPBPR (H-2D^d/TAPBPR complex): dissociated in the presence of TAPBPR

- effect of peptide on MHC-I/TAPBPR complex [1]: complex dissociation
Substance: QYNPIRTTF (Sequence is synthesized) [PHOX2B]

Substance: TAPBPR: chaperone protein homologue of Tapasin, luminal domain expressed in Drosophila S2 cells
- Tm (nanoDSF inflection point) [2]: 52.5 °C

Substance: PNVNIHNF
- fate of bound peptide in the presence of TAPBPR (H-2L^d/TAPBPR complex): remained bound

Substance: QLSPFPFDL [QL9]
- fate of bound peptide in the presence of TAPBPR (H-2L^d/TAPBPR complex): empty H-2L^d/TAPBPR complexes were obtained

Substance: AGPARAAAL (Sequence is synthesized)
- tetramer staining [3]: No staining

- effect of peptide on MHC-I/TAPBPR complex [1]: remain bound
- effect of peptide on MHC-I/TAPBPR complex [4]: remain bound
Substance: YPNVNIHNF (Sequence is synthesized) [p29, irrelevant, nonspecific peptide used as negative control]
